From patent US20240190968A1
Each block holds one binder with its values, some of them ahead of it.

Target: Cynomolgus monkey B7H6 protein overexpressed in CHO-K1 cells (Cynomolgus monkey)
Assay: flow cytometry on CHO-K1-cyno B7H6 cells, Alexa-647 mouse anti-human IgG-Fc secondary antibody, binding ratio (%)

Sequence of Cynomolgus monkey B7H6 protein overexpressed in CHO-K1 cells (Cynomolgus monkey) (chain, as listed by the source limits assumed, form in doubt): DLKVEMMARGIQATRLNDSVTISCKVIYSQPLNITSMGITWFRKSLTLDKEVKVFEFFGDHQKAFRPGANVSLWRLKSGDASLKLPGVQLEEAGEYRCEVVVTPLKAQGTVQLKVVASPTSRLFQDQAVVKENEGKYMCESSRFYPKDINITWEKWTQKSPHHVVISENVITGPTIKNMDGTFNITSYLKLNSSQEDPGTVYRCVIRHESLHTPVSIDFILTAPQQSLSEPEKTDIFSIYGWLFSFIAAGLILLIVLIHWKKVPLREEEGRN

EC50 (read off the curve): 0.7 µg/mL
B1: humanized antibody h12G4 (antibody, human IgG1, kappa, V domains shown)
VH: EVQLVQSGAEVKKPGASVKVSCKASGYTFTDYNMDWVRQAPGKGLEWIGDINPNNGGTLYNQKFRGRVTLTVDKSISTAYMELSRLRSDDTAVYYCARSEVFYGNYADYWGQGTTVTVSS
VL: DIVLTQTPLSLSVTPGQPASISCKASQSVDYDGDSYMNWYLQKPGQPPQLLIYAASTLHSGVPDRFSGSGSGTDFTLKISRVEAEDVGVYYCQQSKEDPRTFGQGTKLEIKR

EC50 (read off the curve): 0.2 µg/mL
B2: humanized antibody h12F5 (antibody, human IgG1, kappa, V domains shown)
VH: EVQLVQSGAEVKKPGASVKVSCKASGYTFTSYYMYWVRQAPGQGLEWIGEINPSNGGTNFNEKFKSRVTLTVDKSISTAYMELSRLRSDDTAVYYCTRTLYYGNDWYFDVWGQGTTVTVSS
VL: EIVLTQSPDFQSVTPKEKVTITCSASSSVNYMHWYQQKPDQSPKRLIYDTSKLASGVPSRFSGSGSGTDYTLTINSLEAEDAATYYCQQWSSNPVTFGQGTKLEIKR
